Reference: patent publication US20200392228A1 (PANDION OPERATIONS, published 2020)

Tests used:
human MAdCAM protein = target: T1, human MAdCAM protein (human, UniProt Q13477 19-317); experiment: Octet
T1 construct: used for Octet, SPR, ELISA and plate capture; construct not described; also called recombinant human MAdCAM; soluble monomeric human MAdCAM
T1 sequence (looked up): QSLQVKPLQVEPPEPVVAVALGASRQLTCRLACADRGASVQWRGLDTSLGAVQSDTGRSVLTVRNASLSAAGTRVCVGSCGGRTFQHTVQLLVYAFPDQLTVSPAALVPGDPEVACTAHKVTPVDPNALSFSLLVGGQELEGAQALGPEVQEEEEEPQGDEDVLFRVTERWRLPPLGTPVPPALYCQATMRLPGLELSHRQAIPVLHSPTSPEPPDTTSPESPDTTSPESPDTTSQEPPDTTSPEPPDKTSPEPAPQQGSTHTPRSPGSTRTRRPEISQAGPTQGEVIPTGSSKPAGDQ

mouse MAdCAM protein = target: T2, mouse MAdCAM protein (mouse, UniProt Q61826 22-365, limits assumed); experiment: Octet
T2 construct: also called recombinant mouse MAdCAM-1; mMAdCAM-1
T2 sequence (looked up): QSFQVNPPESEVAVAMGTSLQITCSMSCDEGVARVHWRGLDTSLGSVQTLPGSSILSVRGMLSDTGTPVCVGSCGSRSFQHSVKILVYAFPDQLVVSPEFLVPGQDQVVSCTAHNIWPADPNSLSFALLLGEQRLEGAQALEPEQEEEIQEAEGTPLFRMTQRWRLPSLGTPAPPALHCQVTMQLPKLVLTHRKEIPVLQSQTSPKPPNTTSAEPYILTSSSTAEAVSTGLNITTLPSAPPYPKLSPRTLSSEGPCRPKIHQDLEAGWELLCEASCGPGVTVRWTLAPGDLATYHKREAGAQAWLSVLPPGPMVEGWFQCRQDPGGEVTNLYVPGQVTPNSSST

[1] = target: T3, human MAdCAM expressed on cells (human, UniProt Q13477 19-382); experiment: cell binding
T3 construct: whole, on cells; also called MADCAM1
T3 sequence (looked up): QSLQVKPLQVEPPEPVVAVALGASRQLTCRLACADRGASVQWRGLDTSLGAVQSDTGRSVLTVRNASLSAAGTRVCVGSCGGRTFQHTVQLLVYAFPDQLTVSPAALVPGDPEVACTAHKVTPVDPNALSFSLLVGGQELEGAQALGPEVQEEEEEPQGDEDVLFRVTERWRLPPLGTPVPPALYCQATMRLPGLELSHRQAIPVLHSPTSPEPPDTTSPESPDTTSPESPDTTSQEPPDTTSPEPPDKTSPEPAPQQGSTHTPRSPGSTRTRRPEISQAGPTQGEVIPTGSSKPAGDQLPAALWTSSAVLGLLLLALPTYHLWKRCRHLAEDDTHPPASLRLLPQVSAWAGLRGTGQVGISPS

[2] = target: T4, mouse MAdCAM expressed on cells (mouse, UniProt Q61826 22-405); experiment: cell binding
T4 construct: whole, on cells
T4 sequence (looked up): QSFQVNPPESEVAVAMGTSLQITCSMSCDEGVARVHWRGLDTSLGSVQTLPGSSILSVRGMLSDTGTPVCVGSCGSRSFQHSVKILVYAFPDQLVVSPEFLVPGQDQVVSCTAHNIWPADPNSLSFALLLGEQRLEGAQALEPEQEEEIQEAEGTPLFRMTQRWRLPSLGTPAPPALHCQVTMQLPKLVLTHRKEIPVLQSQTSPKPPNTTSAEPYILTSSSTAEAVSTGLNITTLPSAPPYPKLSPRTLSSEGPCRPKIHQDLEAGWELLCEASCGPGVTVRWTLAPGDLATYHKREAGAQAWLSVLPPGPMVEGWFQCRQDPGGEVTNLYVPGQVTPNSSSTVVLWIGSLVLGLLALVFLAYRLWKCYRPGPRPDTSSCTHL

B1: MAdCAM antibody Clone ID 17 of Table 7 (IgG) (antibody, V domains shown)
VH: QVQLVQSGAEVKKPGSSVKVSCKASGYTFTDYHIHWVRQAPGQGLEWMGGIVPRSGSTTYAQKFQGRVTITADESTSTAYMELSSLRSEDTAVYYCAKDESSGWYYFDYWGQGTLVTVSS
VL: DIVMTQSPLSLPVTPGEPASISCRSSQSLLHSNGYNYLDWYLQKPGQSPQLLIYSAYNRASGVPDRFSGSGSGTDFTLKISRVEAEDVGVYYCMQALQTPLTFGQGTKVEIK
notes: IgG format
B1: binds (human MAdCAM protein); no binding (mouse MAdCAM protein); binds [1]. B1: no binding [2].

B2: MAdCAM antibody Clone ID 20 of Table 7 (IgG) (antibody, V domains shown)
VH: EVQLLESGGGLVQPGGSLRLSCAASGFTFSDSAMHWVRQAPGKGLEWVSAISGSGSTIYYADSVKGRFTISRDNSKNTLYLQMNSLRAEDTAVYYCVSDIAVAGHWYFDLWGRGTLVTVSS
VL: DIQMTQSPSSLSASVGDRVTITCRASQSISTFLNWYQQKPGKAPKLLIYAASRLEGGVPSRFSGSGSGTDFTLTISSLQPEDFATYYCQQANSFPLTFGPGTKVDIK
notes: IgG format
B2: binds (human MAdCAM protein); no binding (mouse MAdCAM protein); binds [1]. B2: no binding [2].

B3: MAdCAM antibody Clone ID 22 of Table 7 (IgG) (antibody, V domains shown)
VH: EVQLLESGGGLVQPGGSLRLSCAASGFTFDDYAMHWVRQAPGKGLEWVSGISWNSGSIGYADSVKGRFTISRDNSKNTLYLQMNSLRAEDTAVYYCAKDIVAAGHYYYGMDVWGQGTTVTVSS
VL: DIQMTQSPSSLSASVGDRVTITCQASQDISNYLNWYQQKPGKAPKLLIYDASNLETGVPSRFSGSGSGTDFTLTISSLQPEDFATYYCQQSYSTPLTFGGGTKVEIK
notes: IgG format
B3: binds (human MAdCAM protein); no binding (mouse MAdCAM protein); binds [1]. B3: no binding [2].

B4: MAdCAM antibody Clone ID 36 of Table 7 (IgG) (antibody, V domains shown)
VH: EVQLLESGGGLVQPGGSLRLSCAASGFTFDDYALHWVRQAPGKGLEWVSAISGDGRSTTYADSVKGRFTISRDNSKNTLYLQMNSLRAEDTAVYYCARDGTVNGATGWFDPWGQGTLVTVSS
VL: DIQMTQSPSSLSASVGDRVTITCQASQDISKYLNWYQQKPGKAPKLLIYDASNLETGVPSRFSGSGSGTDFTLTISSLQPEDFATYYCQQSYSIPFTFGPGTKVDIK
notes: IgG format
B4: binds (human MAdCAM protein); binds [1]; binds [2].

B5: MAdCAM antibody Clone ID 6 of Table 7 (IgG) (antibody, V domains shown)
VH: EVQLLESGGGLVQPGGSLRLSCAASGFTFNNYAFHWVRQAPGKGLEWVSRINSYGTSTTYADSVKGRFTISRDNSKNTLYLQMNSLRAEDTAVYYCAREGPVAGYWYFDLWGQGTLVTVSS
VL: DIQMTQSPSSLSASVGDRVTITCRASQIIGTNLAWYQQKPGKAPKLLIYGASSLQSGVPSRFSGSGSGTDFTLTISSLQPEDFATYYCQQSYRLPFTFGQGTKVEIK
notes: IgG format
B5: binds (human MAdCAM protein); no binding (mouse MAdCAM protein); binds [1]. B5: no binding [2].

B6: MAdCAM antibody Clone ID 30 of Table 7 (IgG) (antibody, V domains shown)
VH: EVQLLESGGGLVQPGGSLRLSCAASGFTFSSYAMHWVRQAPGKGLEWVSGISGSGGSAYYADSVKGRFTISRDNSKNTLYLQMNSLRAEDTAVYYCATSQAPVDYYYYGMDVWGQGTTVTVSS
VL: DIQMTQSPSSLSASVGDRVTITCRASQSISSWLAWYQQKPGKAPKLLIYAASNLQRGVPSRFSGSGSGTDFTLTISSLQPEDFATYYCQQSYSIPITFGQGTKVEIK
notes: IgG format
B6: binds (human MAdCAM protein); binds [1]; binds [2].

B7: MAdCAM antibody Clone ID 78 of Table 7 (IgG) (antibody, V domains shown)
VH: QVQLVQSGAEVKKPGSSVKVSCKASGGTFSSYAISWVRQAPGQGLEWMGWMEPHTGNTRYAQKFQGRVTITADESTSTAYMELSSLRSEDTAVYYCAKGGFSWFDPWGQGTLVTVSS
VL: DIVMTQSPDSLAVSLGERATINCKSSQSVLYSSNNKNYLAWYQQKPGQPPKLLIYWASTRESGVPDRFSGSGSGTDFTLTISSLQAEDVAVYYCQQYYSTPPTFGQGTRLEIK
notes: IgG format
B7: binds (human MAdCAM protein); binds [1]; binds [2].

B8: MAdCAM antibody Clone ID 58 of Table 7 (IgG) (antibody, V domains shown)
VH: EVQLLESGGGLVQPGGSLRLSCAASGFSVSSNYMSWVRQAPGKGLEWVAGISYDGSSKPYADSVKGRFTISRDNSKNTLYLQMNSLRAEDTAVYYCARSRGIAARPLQHWGQGTLVTVSS
VL: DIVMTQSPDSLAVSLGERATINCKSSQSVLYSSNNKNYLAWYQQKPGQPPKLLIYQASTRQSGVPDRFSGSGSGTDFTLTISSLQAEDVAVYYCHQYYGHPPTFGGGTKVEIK
notes: IgG format
B8: binds (human MAdCAM protein); binds [1]; no binding [2].
